This experiment deals with human CD8 alpha (human, UniProt P01732 22-235). Nature of the experiment: cell-based or functional assay.
human CD8 alpha, sequence (P01732 22-235): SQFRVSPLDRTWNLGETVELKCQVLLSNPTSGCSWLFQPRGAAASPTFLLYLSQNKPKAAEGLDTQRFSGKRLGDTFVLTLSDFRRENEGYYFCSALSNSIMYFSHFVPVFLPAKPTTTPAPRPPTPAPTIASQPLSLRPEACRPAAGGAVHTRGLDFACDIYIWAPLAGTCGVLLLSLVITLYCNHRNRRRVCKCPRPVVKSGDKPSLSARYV

B1: hCD8 VHH 1CDA65_20GGS_IL1α delta 1-6_1GGS_9xhis (other)
chain: QVQLQESGGGLVQPGGSLRLSCAASGSIFSINVMGWYRQTPGKERELVAKITNFGITSYADSAQGRFTISRGNAKNTVYLQMNSLKPEDTAVYYCNLDTTGWGPPPYQYWGQGTQVTVSSVDGGSGGSGGSGGSGGSGGSGGSGGSGGSGGSGGSGGSGGSGGSGGSGGSGGSGGSGGSGGSLSNVKYNFMRIIKYEFILNDALNQSIIRANDQYLTAAALHNLDEAVKFDMGAYKSSKDDAKITVILRISKTQLYVTAQDEDQPVLLKEMPEIPKTITGSETNLLFFWETHGTKNYFTSVAHPNLFIATKQDYWVCLAGGPPSITDFQILENQAGGSHHHHHHHHH
Regarding B1, the “EC50, CD8+ HekBlue-IL-1β cells (SEAP)” value is roughly 0.3 ng/mL.

B2: IL1α delta 1-6_20GGS_hCD8 VHH 1CDA65_1GGS_9xhis (other)
chain: LSNVKYNFMRIIKYEFILNDALNQSIIRANDQYLTAAALHNLDEAVKFDMGAYKSSKDDAKITVILRISKTQLYVTAQDEDQPVLLKEMPEIPKTITGSETNLLFFWETHGTKNYFTSVAHPNLFIATKQDYWVCLAGGPPSITDFQILENQAGGSGGSGGSGGSGGSGGSGGSGGSGGSGGSGGSGGSGGSGGSGGSGGSGGSGGSGGSGGSQVQLQESGGGLVQPGGSLRLSCAASGSIFSINVMGWYRQTPGKERELVAKITNFGITSYADSAQGRFTISRGNAKNTVYLQMNSLKPEDTAVYYCNLDTTGWGPPPYQYWGQGTQVTVSSVDGGSHHHHHHHHH
On to B2, for which the “EC50, CD8+ HekBlue-IL-1β cells (SEAP)” value is roughly 0.3 ng/mL.

Values taken from patent US20240358826A1 (ORIONIS BIOSCIENCES, published 2024).
